Measurements as given in the supplement of paper PMC11246515.
± gives the standard deviation of the averaged measurements.

Assay: total protein half-life in vivo (active degradation + dilution); higher = more stable protein
[1] = E. coli NCM3722 delta-clpP delta-lon delta-hslV, growth: N-lim chemostat, doubling time 6 h
[2] = E. coli NCM3722 delta-clpP, growth: N-lim chemostat, doubling time 6 h
[3] = E. coli NCM3722 delta-hslV, growth: N-lim chemostat, doubling time 6 h
[4] = E. coli NCM3722 delta-lon, growth: N-lim chemostat, doubling time 6 h
[5] = E. coli NCM3722 delta-smpB, growth: N-lim chemostat, doubling time 6 h
[6] = wild type E. coli NCM3722, growth: C-lim chemostat, doubling time 3 h
[7] = wild type E. coli NCM3722, growth: C-lim chemostat, doubling time 6 h
[8] = wild type E. coli NCM3722, growth: C-lim chemostat, doubling time 12 h
[9] = wild type E. coli NCM3722, growth: N-lim chemostat, doubling time 6 h
[10] = wild type E. coli NCM3722, growth: N-lim chemostat, doubling time 12 h
[11] = wild type E. coli NCM3722, growth: P-lim chemostat, doubling time 6 h
[12] = wild type E. coli NCM3722, growth: P-lim chemostat, doubling time 12 h

Sequence	total protein half-life in vivo [1]	total protein half-life in vivo [2]	total protein half-life in vivo [3]	total protein half-life in vivo [4]	total protein half-life in vivo [5]	total protein half-life in vivo [6]	total protein half-life in vivo [7]	total protein half-life in vivo [8]	total protein half-life in vivo [9]	total protein half-life in vivo [10]	total protein half-life in vivo [11]	total protein half-life in vivo [12]
MIIYLHGFDSNSPGNHEKVLQLQFIDPDVRLISYSTRHPKHDMQHLLKEVDKMLQLNVDERPLICGVGLGGYWAERIGFLCDIRQVIFNPNLFPYENMEGKIDRPEEYADIATKCVTNFREKNRDRCLVILSRNDEALNSQRTSEELHHYYEIVWDEEQTHKFKNISPHLQRIKAFKTLG [P0A8E1]	4.77 ± 0.071 h	4.58 ± 1.1 h	4.44 ± 0.73 h	4.75 ± 0.35 h	4.37 ± 0.91 h	2.64 ± 0.47 h	4.65 ± 0.2 h	7.7 ± 1.6 h	3.92 ± 0.39 h	6.49 ± 0.25 h	5.07 ± 0.15 h	10.6 ± 0.38 h
MIKATDRKLVVGLEIGTAKVAALVGEVLPDGMVNIIGVGSCPSRGMDKGGVNDLESVVKCVQRAIDQAELMADCQISSVYLALSGKHISCQNEIGMVPISEEEVTQEDVENVVHTAKSVRVRDEHRVLHVIPQEYAIDYQEGIKNPVGLSGVRMQAKVHLITCHNDMAKNIVKAVERCGLKVDQLIFAGLASSYSVLTEDERELGVCVVDIGGGTMDIAVYTGGALRHTKVIPYAGNVVTSDIAYAFGTPPSDAEAIKVRHGCALGSIVGKDESVEVPSVGGRPPRSLQRQTLAEVIEPRYTELLNLVNEEILQLQEKLRQQGVKHHLAAGIVLTGGAAQIEGLAACAQRVFHTQVRIGAPLNITGLTDYAQEPYYSTAVGLLHYGKESHLNGEAEVEKRVTASVGSWIKRLNSWLRKEF [P0ABH0]	6.03 ± 0.16 h	6.41 ± 0.51 h	6.33 ± 0.27 h	6.06 ± 0.5 h	5.42 ± 0.13 h	3.04 ± 0.12 h	5.738 ± 0.047 h	10 ± 0.52 h	5.48 ± 0.26 h	10.8 ± 0.71 h	5.868 ± 0.02 h	11.3 ± 0.42 h
MIKKIGVLTSGGDAPGMNAAIRGVVRSALTEGLEVMGIYDGYLGLYEDRMVQLDRYSVSDMINRGGTFLGSARFPEFRDENIRAVAIENLKKRGIDALVVIGGDGSYMGAMRLTEMGFPCIGLPGTIDNDIKGTDYTIGFFTALSTVVEAIDRLRDTSSSHQRISVVEVMGRYCGDLTLAAAIAGGCEFVVVPEVEFSREDLVNEIKAGIAKGKKHAIVAITEHMCDVDELAHFIEKETGRETRATVLGHIQRGGSPVPYDRILASRMGAYAIDLLLAGYGGRCVGIQNEQLVHHDIIDAIENMKRPFKGDWLDCAKKLY [P0A796]	4.43 ± 0.51 h	3.9 ± 0.11 h	4.03 ± 0.12 h	4.146 ± 0.0074 h	3.89 ± 0.13 h	3 ± 0.15 h	5.83 ± 0.099 h	10.3 ± 0.71 h	3.64 ± 0.18 h	5.77 ± 0.15 h	5.69 ± 0.36 h	11.7 ± 0.9 h
MIKLSNITKVFHQGTRTIQALNNVSLHVPAGQIYGVIGASGAGKSTLIRCVNLLERPTEGSVLVDGQELTTLSESELTKARRQIGMIFQHFNLLSSRTVFGNVALPLELDNTPKDEVKRRVTELLSLVGLGDKHDSYPSNLSGGQKQRVAIARALASNPKVLLCDEATSALDPATTRSILELLKDINRRLGLTILLITHEMDVVKRICDCVAVISNGELIEQDTVSEVFSHPKTPLAQKFIQSTLHLDIPEDYQERLQAEPFTDCVPMLRLEFTGQSVDAPLLSETARRFNVNNNIISAQMDYAGGVKFGIMLTEMHGTQQDTQAAIAWLQEHHVKVEVLGYV	6.5123 ± 0.0016 h	6.41 ± 0.39 h	6.04 ± 0.08 h	6.66 ± 0.25 h	5.61 ± 0.26 h		5.76 ± 0.38 h	9.681 ± 0.078 h	5.85 ± 0.51 h	12.67 ± 0.12 h	6.3 ± 0.86 h	12.1 ± 0.42 h
MIKQRTLKRIVQATGVGLHTGKKVTLTLRPAPANTGVIYRRTDLNPPVDFPADAKSVRDTMLCTCLVNEHDVRISTVEHLNAALAGLGIDNIVIEVNAPEIPIMDGSAAPFVYLLLDAGIDELNCAKKFVRIKETVRVEDGDKWAEFKPYNGFSLDFTIDFNHPAIDSSNQRYAMNFSADAFMRQISRARTFGFMRDIEYLQSRGLCLGGSFDCAIVVDDYRVLNEDGLRFEDEFVRHKMLDAIGDLFMCGHNIIGAFTAYKSGHALNNKLLQAVLAKQEAWEYVTFQDDAELPLAFKAPSAVLA [P0A725]	2.8 ± 0.28 h	0.889 ± 0.17 h	0.979 ± 0.33 h	1.03 ± 0.011 h	0.639 ± 0.021 h	0.467 ± 0.1 h	0.861 ± 0.11 h	1.1 ± 0.33 h	0.978 ± 0.12 h	1.43 ± 0.28 h	1.06 ± 0.19 h	2.1 ± 0.78 h
MIKRNLPLMITIGVFVLGYLYCLTQFPGFASTRVICNILTDNAFLGIIAVGMTFVILSGGIDLSVGSVIAFTGVFLAKVIGDFGLSPLLAFPLVLVMGCAFGAFMGLLIDALKIPAFIITLAGMFFLRGVSYLVSEESIPINHPIYDTLSSLAWKIPGGGRLSAMGLLMLAVVVIGIFLAHRTRFGNQVYAIGGNATSANLMGISTRSTTIRIYMLSTGLATLAGIVFSIYTQAGYALAGVGVELDAIASVVIGGTLLSGGVGTVLGTLFGVAIQGLIQTYINFDGTLSSWWTKIAIGILLFIFIALQRGLTVLWENRQSSPVTRVNIAQQ						3.66 h	6.05 h					
